From paper PMC3242506 (Biochemical Journal, 2011)

Experiments:
[1] = molecular target: the molecule itself; experiment: cross-linking
[2] = molecular target: the molecule itself; experiment: cross-linking; remark: listed apart in the source
[3] = molecular target: the molecule itself; experiment: SDS/PAGE and Western blot without cross-linker

B1: first four TM regions of human TPC1 (TPC1^1–225) (domain or fragment)
chain: not shown
[1]
  stoichiometry N: 2

B2: domain II of human TPC1 (TPC1^427–816) (domain or fragment)
chain: not shown
modifications: N-glycosylated (bands sensitive to PNGase F)
[2]
  stoichiometry N: 2.2
[3]
  stoichiometry N: 2

B3: domain I of human TPC1 (TPC1^1–347) (domain or fragment)
chain: not shown
[2]
  stoichiometry N: 2.1

B4: domain II of human TPC2 (TPC2^422–752) (domain or fragment, UniProt Q8NHX9 422-752, looked up)
chain: LQSAQFLFGHYYFDYLGNLIALANLVSICVFLVLDADVLPAERDDFILGILNCVFIVYYLLEMLLKVFALGLRGYLSYPSNVFDGLLTVVLLVLEISTLAVYRLPHPGWRPEMVGLLSLWDMTRMLNMLIVFRFLRIIPSMKLMAVVASTVLGLVQNMRAFGGILVVVYYVFAIIGINLFRGVIVALPGNSSLAPANGSAPCGSFEQLEYWANNFDDFAAALVTLWNLMVVNNWQVFLDAYRRYSGPWSKIYFVLWWLVSSVIWVNLFLALILENFLHKWDPRSHLQPLAGTPEATYQMTVELLFRDILEEPGEDELTERLSQHPHLWLCR
[2]
  stoichiometry N: 2.2

B5: domain I of human TPC2 (TPC2^1–339) (domain or fragment, UniProt Q8NHX9 1-339, looked up)
chain: MAEPQAESEPLLGGARGGGGDWPAGLTTYRSIQVGPGAAARWDLCIDQAVVFIEDAIQYRSINHRVDASSMWLYRRYYSNVCQRTLSFTIFLILFLAFIETPSSLTSTADVRYRAAPWEPPCGLTESVEVLCLLVFAADLSVKGYLFGWAHFQKNLWLLGYLVVLVVSLVDWTVSLSLVCHEPLRIRRLLRPFFLLQNSSMMKKTLKCIRWSLPEMASVGLLLAIHLCLFTMFGMLLFAGGKQDDGQDRERLTYFQNLPESLTSLLVLLTTANNPDVMIPAYSKNRAYAIFFIVFTVIGSLFLMNLLTAIIYSQFRGYLMKSLQTSLFRRRLGTRAAFE
[2]
  stoichiometry N: 2.3
[3]
  stoichiometry N: 2
